Reference: paper PMC3005147

Molecular target: human UbcH5c, full-length (aa 1-147) (human) (UniProt P61077)
Assay: ITC

Kd: 67.1 µM | dH: 2.9 kcal/mol | stoichiometry N: 0.99
Substance: human E4B U-box domain (aa 1208-1302) (from UniProt O95155 1208-1302) (domain or fragment)
